Results published in PMC9177810, “Allosteric interactions prime androgen receptor dimerization and activation”.

Tests used:
AR-AR27Linker (mouse) = AR-AR27Linker (mouse) (UniProt P19091); experiment: fluorescence polarization; conditions: 150 mM NaCl, 40 mM Tris pH 8.0, 1 mM TCEP, 20 uM DHT, 10% glycerol, 0.01% NP40, on ice; FP 100 nM DNA, 0-4 uM protein; EMSA 50 nM DNA, 250 nM protein
AR-AR18Linker (mouse) = AR-AR18Linker (mouse) (UniProt P19091); experiment: fluorescence polarization; conditions: 150 mM NaCl, 40 mM Tris pH 8.0, 1 mM TCEP, 20 uM DHT, 10% glycerol, 0.01% NP40, on ice; FP 100 nM DNA, 0-4 uM protein; EMSA 50 nM DNA, 250 nM protein
[1] = molecular target: Recombinant mouse AR lacking the N-terminus (mouse); experiment: cryo-EM structure; Grafix cross-linked complex of ΔNTD AR, DHT, ARE35 DNA and ERG (fraction 11); three states (Entrenched, Splayed, Divorced) at 11.4, 9.1 and 9.4 Å; LBD and DBD X-ray coordinates docked
[2] = molecular target: AR deltaNTD WT;ERG full-length (mouse;human, UniProt P19091;P11308-1 530-899;1-462, |); experiment: cryo-EM (9.1-11.4 A); DHT; GraFix cross-linked; AR dimer; EMD-25132, EMD-25133, EMD-25134; 150 mM NaCl, 40 mM Tris pH 8.0, 1 mM TCEP, 20 uM DHT, 10% glycerol, 0.01% NP40, on ice; FP 100 nM DNA, 0-4 uM protein; EMSA 50 nM DNA, 250 nM protein; conditions: protein: recombinant;recombinant, tags: Smt3 fusion, removed by Ulp1;Smt3 fusion, chain copies: 2;1, label: unlabeled, blunt
AR deltaNTD WT = AR deltaNTD WT (mouse, UniProt P19091 530-899); experiment: fluorescence polarization; DHT; 150 mM NaCl, 40 mM Tris pH 8.0, 1 mM TCEP, 20 uM DHT, 10% glycerol, 0.01% NP40, on ice; FP 100 nM DNA, 0-4 uM protein; EMSA 50 nM DNA, 250 nM protein; conditions: protein: recombinant; tags: Smt3 fusion, removed by Ulp1; chain copies: 2; label: 5' fluorescein (FP); unlabeled (EMSA); blunt
Sequence of AR deltaNTD WT (P19091 530-899, stated change not applied): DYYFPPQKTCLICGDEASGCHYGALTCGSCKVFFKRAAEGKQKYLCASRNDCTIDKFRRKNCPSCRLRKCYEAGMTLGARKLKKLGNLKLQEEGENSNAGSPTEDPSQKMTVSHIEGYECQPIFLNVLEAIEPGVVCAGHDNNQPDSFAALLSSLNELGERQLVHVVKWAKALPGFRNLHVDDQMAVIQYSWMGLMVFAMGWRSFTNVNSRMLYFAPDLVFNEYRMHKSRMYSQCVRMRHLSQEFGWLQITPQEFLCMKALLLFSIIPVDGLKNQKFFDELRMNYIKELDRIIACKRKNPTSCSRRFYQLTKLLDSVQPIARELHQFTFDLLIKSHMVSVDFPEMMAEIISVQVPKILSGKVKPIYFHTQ

Sequence of AR deltaNTD WT;ERG full-length (P19091 530-899, stated change not applied, chain 1 of 2): as the sequence (P19091 530-899, stated change not applied) above
Sequence of AR deltaNTD WT;ERG full-length (P11308 other isoform, or with tags, fused parts or gaps | | mutant, chain 2 of 2): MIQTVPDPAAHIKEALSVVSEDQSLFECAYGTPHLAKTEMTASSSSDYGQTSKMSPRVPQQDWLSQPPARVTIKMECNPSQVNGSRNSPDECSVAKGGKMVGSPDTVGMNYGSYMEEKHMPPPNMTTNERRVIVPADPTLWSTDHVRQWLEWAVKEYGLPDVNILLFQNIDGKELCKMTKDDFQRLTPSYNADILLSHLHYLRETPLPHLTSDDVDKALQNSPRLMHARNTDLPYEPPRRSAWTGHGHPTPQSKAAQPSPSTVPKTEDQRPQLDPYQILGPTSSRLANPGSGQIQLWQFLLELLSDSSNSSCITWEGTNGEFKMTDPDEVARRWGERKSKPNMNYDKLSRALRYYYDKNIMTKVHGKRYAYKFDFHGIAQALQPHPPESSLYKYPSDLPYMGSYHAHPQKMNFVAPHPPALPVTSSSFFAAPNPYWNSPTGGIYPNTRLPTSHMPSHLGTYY
Sequence of AR-AR18Linker (mouse) (P19091 whole entry, the tested form may be a part): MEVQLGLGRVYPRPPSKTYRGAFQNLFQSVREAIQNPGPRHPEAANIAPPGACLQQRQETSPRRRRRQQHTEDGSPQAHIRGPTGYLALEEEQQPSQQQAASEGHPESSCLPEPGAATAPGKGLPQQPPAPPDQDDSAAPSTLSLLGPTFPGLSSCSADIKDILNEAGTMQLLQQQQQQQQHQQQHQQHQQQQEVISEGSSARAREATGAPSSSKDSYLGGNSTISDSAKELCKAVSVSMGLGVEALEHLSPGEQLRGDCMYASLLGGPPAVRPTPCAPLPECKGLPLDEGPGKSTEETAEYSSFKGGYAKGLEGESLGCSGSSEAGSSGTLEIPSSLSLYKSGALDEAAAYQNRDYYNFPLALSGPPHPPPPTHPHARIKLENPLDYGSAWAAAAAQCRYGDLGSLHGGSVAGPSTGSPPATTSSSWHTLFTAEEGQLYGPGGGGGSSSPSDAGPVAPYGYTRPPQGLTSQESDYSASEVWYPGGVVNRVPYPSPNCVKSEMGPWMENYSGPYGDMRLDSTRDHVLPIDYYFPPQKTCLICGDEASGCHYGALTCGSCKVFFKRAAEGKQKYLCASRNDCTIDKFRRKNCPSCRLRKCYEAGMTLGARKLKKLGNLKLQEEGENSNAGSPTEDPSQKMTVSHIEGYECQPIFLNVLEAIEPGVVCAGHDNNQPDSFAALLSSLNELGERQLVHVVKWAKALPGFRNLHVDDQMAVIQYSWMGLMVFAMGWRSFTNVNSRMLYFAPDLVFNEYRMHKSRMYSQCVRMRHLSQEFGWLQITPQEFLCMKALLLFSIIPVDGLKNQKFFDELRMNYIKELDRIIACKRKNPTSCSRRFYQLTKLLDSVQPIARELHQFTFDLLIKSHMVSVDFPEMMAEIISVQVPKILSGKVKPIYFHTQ
Sequence of AR-AR27Linker (mouse) (P19091 whole entry): as the sequence (P19091 whole entry, the tested form may be a part) above

Molecule: TACCTAGCGTGGCCAGAACATCATGTTCTCCGGTGCGATCCAG (double strand) [ARE/Scr (ARE43)]
- binding signal (fold weaker than WT AR) (AR-AR27Linker (mouse)): 3
- binding signal (fold tighter than WT AR) (AR-AR18Linker (mouse)): 5

Molecule: Recombinant mouse AR lacking the N-terminus (domain or fragment)
- stoichiometry N [1]: 2

B1: ARE35 (dsDNA)
DNA 1: TAGCGTGGCCAGAACATCATGTTCTCCGGTGCGAT
DNA 2: ATCGCACCGGAGAACATGATGTTCTGGCCACGCTA
- binding result [2]: binds

B2: ARE/Scr (ARE43) (dsDNA)
DNA 1: TACCTAGCGTGGCCAGAACATCATGTTCTCCGGTGCGATCCAG
DNA 2: CTGGATCGCACCGGAGAACATGATGTTCTGGCCACGCTAGGTA
- binding result (AR deltaNTD WT): binds
